The target of data set [1] is T1, QK RNA-binding domain (recombinant, purified) (UniProt Q9QYS9 1-213).
T1 sequence: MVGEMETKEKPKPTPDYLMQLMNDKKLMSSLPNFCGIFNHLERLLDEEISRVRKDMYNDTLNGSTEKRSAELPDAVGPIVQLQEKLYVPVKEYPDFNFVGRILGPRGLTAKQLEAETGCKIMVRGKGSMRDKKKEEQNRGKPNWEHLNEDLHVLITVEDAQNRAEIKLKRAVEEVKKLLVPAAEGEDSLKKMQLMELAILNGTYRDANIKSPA
Put plainly: EMSA; three fragments; does not bind with high affinity; EMSA on non-denaturing 5% polyacrylamide slab gel in 1x TBE; binding buffer, salt, pH and temperature not printed (per ref 64). (In general: In EMSA bound probe runs differently from free probe, usually more slowly.)

The target of data set [2] is T1, QK RNA-binding domain (recombinant, …). Kind of data set: EMSA and fluorescence polarization; apparent Kd; EMSA on non-denaturing 5% polyacrylamide slab gel in 1x TBE; binding buffer, salt, pH and temperature not printed (per ref 64).
For data set [3] the target is unchanged. Kind of data set: competition; competes with Mbp QSBE; Kc,app value only in figure; EMSA on non-denaturing 5% polyacrylamide slab gel in 1x TBE; binding buffer, salt, pH and temperature not printed (per ref 64).

Regarding GCUCAUUCUUUGGAGCGGGUGUGUCAUU (ssRNA) [Plp1 ESE fragments (three overlapping)], in data set [1], the binding result was “no binding”. CAGUGCCCAUUGGUACACACUAACCUCG (ssRNA) [Mbp QSBE]: the Kd in data set [2] stood at 44 ± 2 nM. On to UGUGACUAAUUG (ssRNA) [Hnrnpa1 12-nt RNA competitor], for which the binding result in data set [3] is given as “binds”. As to AACUCCAGGACUGUAUUUGUGACUAAUUGU (ssRNA) [Hnrnpa1 3' UTR QSBE WT, 30 nt], the Kd in data set [2] was 36 ± 2 nM.

For the origin of these results see article PMC3017110.
